In the supplement of paper PMC9170038:

System: MS2 coat protein
Experiment: apparent KD of MS2 coat protein; designed switch direction (-1 OFF switch, 1 ON switch): -1; higher = weaker reporter binding
How it was run: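 An oligonucleotide input, 200 uM small-molecule ligand, or no input was present during titration of SNAP-549-labelled MS2 coat protein, which was doubled from 0.7 or 1.5 nM to 3 µM. Designed RNA switches had been transcribed on Illumina chips by stalled E. coli RNA polymerase. Apparent KD per design is the median over clusters of curves fitted to normalised cluster fluorescence.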

[1] = Eterna round: R95, input ligand: microRNA oligo, concentration not stated
[2] = Eterna round: R95, input ligand: FMN 200 uM
[3] = Eterna round: R95, input ligand: none
[4] = input ligand: microRNA oligo, concentration not stated

Sequence | apparent KD of MS2 coat protein [1] | apparent KD of MS2 coat protein (input ligand: FMN 200 uM) | apparent KD of MS2 coat protein (input ligand: none) | other results
GUAGAGUCAGGAUAUACGAGAUCGAAAGAUCGGCGGUCUGUACAUGAGGAUCACCCAUGUAGAAGGGACUCUAC [ChP 11-04-2015 #6] (puzzle: Exclusion 2) | 15.3 nM | – | – | –
ACAAGCUUAAUCAGUAUGAACAUGAGGAUCACCCAUGUAAAAGGGAAUACUAUUGGGUUUUUUAUAGCUCGUCUUAU [JR_STOV1_Sub018] (Eterna round: R97, puzzle: Sensor, turn-off variant 1) | – | 17.8 nM | 21.7 nM | –
CGUGUCUUUUACGUGAGUGGUGGGUGCAACAGGUGGGUUACAUGAGGAUCACCCAUGUGCUCACUUGCUCGUCUUUU [Grok-var2-09] (puzzle: Sensor v3, turn-off variant 2) | 39.3 nM | – | – | apparent KD of MS2 coat protein [2]: 60.7 nM; apparent KD of MS2 coat protein [3]: 58.1 nM
AAAUUCAGAGGAUAUGCGCAUAGAUAAGACUUUGUUUCUUAACAUGAGGAUCACCCAUGUAGAAGGCUGUACAA [Ex2 #68] (Eterna round: R97, puzzle: Exclusion 2) | – | 16.1 nM | 13.4 nM | –
AGGAAGCAAGGAUAUACGAGGAGAAGGUGUCCAUCUAAAGGACAUGAGGAUCACCCAUGUAGAAGGUGCGAGAA [JR_Exclu2_Sub049] (puzzle: Exclusion 2) | 210 nM | – | – | apparent KD of MS2 coat protein [2]: 49.6 nM; apparent KD of MS2 coat protein [3]: 189 nM
AUAAACCUAGGAUAUACAUGAGGAUCACCCAUGUAAGGGCAAUGCCCAUGCUCCUCAUGUAGAAGGAGGAGCAG [Xezausa] (puzzle: Exclusion 3) | 20.2 nM | – | – | –
UCUCGAAGGCAAGGAUAUCCUACAUUGUUCUGGCCCGGGCAUGCUACAUGAGGAUCACCCAUGUGGGAGAAGGUGCGCCACUGC [Design 28] (Eterna round: R96, puzzle: Exclusion NG 2) | – | 69.6 nM | 72 nM | apparent KD of MS2 coat protein [4]: 47.1 nM
ACUUACUGAGGAUAUACAUAGAUAAACAUGAGGAUCACCCAUGUUCCUAUAAGUAUAUAUGUAGAAGGCAGAAGAA [JR_Ex5_Sub074] (Eterna round: R97, puzzle: Exclusion 5) | – | 24.2 nM | 14.7 nM | –
GGGUGCAGGCUGAGGUCCUACAUGAGGAUCACCCAUGUGGUCCGGUGACGUGAGUCACCGGACUUAGCUCGUCUUGU [salish99_S_TOV1_R5_009] (Eterna round: R97, puzzle: Sensor, turn-off variant 1) | – | 82 nM | 97.8 nM | –
AUUGUUGUUGUGAGGAUAUCGUUGAUUUUUUGAAACGAGAAGGCACAUGAGGAUCACCCAUGUUAGUUGUUGGU [JR_BMOE4_Sub057] (puzzle: Brourd's mod of Exclusion 4) | 77.3 nM | – | – | –
AUAUACGGAGGAUAUACUUGAGGAUCACCCAAGUGGAGUCCCGUUUGGGCGGUAAAUAGUAGAAGGCCGUCCCA [jl-ex3-4.44 ViennaUCT mod] (Eterna round: R97, puzzle: Exclusion 3) | – | 16.8 nM | 12.3 nM | –
UCUCGCUGGCGAGGAUAUCCUGUGCGGUUCCGGCUCGUGUCUGUUACAUGAGGAUCACCCAUGUGGGAGAAGGUGCCUGUGGCU [Design 94] (Eterna round: R96, puzzle: Exclusion NG 2) | – | – | – | apparent KD of MS2 coat protein [4]: 22 nM
ACAAGCUUUUUGCUCGGGUACAUGAGGAUCACCCAUGUUUGGGUUUAUUGAGGUUGUGUUGUCGUGCGCUGCAGGUU [JR_SV3TOV1_Sub076] (puzzle: Sensor v3, turn-off variant 1) | 416 nM | – | – | apparent KD of MS2 coat protein [2]: 165 nM; apparent KD of MS2 coat protein [3]: 232 nM
CCUCCGGCAGGAUAUGCAGGGAGGAUGUUGUGUUAUUGGUAACAUGAGGAUCACCCAUGUAGAAGGGCCAAUAC [Eternabot (L2) Solution 42] (Eterna round: R97, puzzle: Exclusion 2) | – | 17.9 nM | 15 nM | –
ACUCAGUCAGGAUAUCAAUCCGCCUGUGAUACGCAGGCGGCUGAGAAGGGACAUGAGGAUCACCCAUGUAAAGA [jl-ex4-4.18 ViennaUCT mod] (Eterna round: R97, puzzle: Exclusion 4) | – | 538 nM | 129 nM | –
